Our source for the β2AR degradation after 24 hrs of isoproterenol treatment (125I CYP binding on whole HEK 293 cells; mock about 25%) values is US20060263828A1.

The target in this test is Flag-β2AR (UniProt P07550). The experiment in a line: cell-based or functional assay.

As to β-arrestin2 (from UniProt P29067 1-410), the β2AR degradation after 24 hrs of isoproterenol treatment (125I CYP binding on whole HEK 293 cells; mock about 25%) fell in the range of 6 to 7%.
